Biological target: the molecule itself
Test: SEC-SAXS

B1: ParB1 from Vibrio cholerae (vcParB1) (natural protein)
chain: MTKRGLGKGLDALLATSSLAREKQQVASLSQSMSAEGELADLSISNLKPGIYQPRKDLSPEALEELAASIQSQGIIQPIVVRHLPTGGYEIIAGERRWRAAKQAGLKQVPCLIKQVEDRGAIAMALIENIQREDLNAMEEAQALERLQNEFNLTHQQVAEVIGKSRTTVTNLLRLNQLSDDVKRLLETKQLEMGHARALLMLEGEQQVEIAQQVAKKQLTVRQTEQLVKKCLSDPSDAKNVSEDLEIQQLSQNLSEKLAAKVSIVRTPNGKSKVTISLDEPHKLELLIAKLQN
- stoichiometry N: 2

Source: doi:10.1101/2024.06.25.600654 (bioRxiv, 2024)
